# Results as given in patent publication US20230049152A1 (Genentech, published 2023).
# Positions count from the first letter of the chain named.
# B1: rb.Ab5 (antibody, V domains shown)
# VH: QSVEESGGRLVSPGTPLTLTCTVSGIDLSTYAMGWVRQAPGKGLEWIGLIHRSGRTYYATWAKGRFTISKTSSTTVDLKITSPTTEDTATYFCTRSYPDYSATASIWGPGTLVTVSS
# VL: DIVVTQTPASVEAAVGGTVTIKCQASENIANALAWYQQKSGQPPMFLIYGASNLASGVSSRFKGSGSGTEFTLTISDLECADAAVYYCQCAYYGNSFVEGTFGGGTEVVVK
# notes: Rabbit variable regions; also called parental rabbit antibody Ab5
# B2: hu.Ab5.H1L2 (antibody, human IgG1, kappa)
# heavy: not shown
# light: DIQMTQSPSSLSASVGDRVTITCQASENIANALAWYQQKPGKPPKFLIYGASNLASGVPSRFSGSGSGTDFTFTISSLQPEDIATYYCQQAYYGNSFVEGTFGGGTKVEIKRTVAAPSVFIFPPSDEQLKSGTASVVCLLNNFYPREAKVQWKVDNALQSGNSQESVTEQDSKDSTYSLSSTLTLSKADYEKHKVYACEVTHQGLSSPVTKSFNRGEC
# B3: hu.Ab5.H1L4 (antibody, human IgG1, kappa, V domains shown)
# VH: EQQLLESGGGLVQPGGSLRLSCAVSGIDLSTYAMGWVRQAPGKGLEWIGLIHRSGRTYYATWAKGRFTISKDSSKTTVYLQMNSLRAEDTAVYFCTRSYPDYSATASIWGPGTTVTVSS
# VL: DIQVTQSPSSLSASVGDRVTITCQASENIANALAWYQQKPGKPPKLLIYGASNLASGVPSRFSGSGSGTDFTFTISSLQPEDIATYYCQQAYYGNSFVEGTFGGGTKVEIKR
# B4: hu.Ab5.H1L3 (antibody, human IgG1, kappa, V domains shown)
# VH: B3 VH
# VL: B3 VL with P43A, L46F
# B5: hu.Ab5.H1L5 (antibody, human IgG1, kappa, V domains shown)
# VH: B3 VH
# VL: B3 VL with V4M, P43A
# Biological target: T1, human CCR8 (human, UniProt P51685 1-355)
# T1 construct: the assay field says which; also called hCCR8; huCCR8
# Experiment: flow cytometry, CHO-huCCR8.Gna15 cells, relative to rb.Ab5
# Description: (§1) Evaluation of CCR8 binding of the humanized variants with a hIgG1 Fc involved screening by flow cytometry, and comparing the relative EC₅₀ and MFI on human CCR8 CHO cells to the parental rabbit antibodies. Specifically, stable CHO-huCCR8.Gna15 cells were stained with various concentrations (starting from 10 ug/ml or 66.66 nM, 1:4 serial dilution for total 8 concentration points) of Ab4 and Ab5 variants at 4° C. for 30 minutes, then washed twice with FACS buffer (PBS with 0.5% BSA and 0.2 mM EDTA) and followed by staining with AF647-anti-hIgG at 4° C. for 15 min. Cells were washed twice with FACS buffer, and re-suspended in FACS buffer with propidium iodide (0.5 ug/ml) and analyzed with iQue3 (Sartorius).
Binder,Relative EC50,Relative MFI
B1,1 ratio,1 ratio

# Biological target: T1, human CCR8
# Experiment: as above
# Remark: another data set of the same source
# Description: as §1
Binder,Relative EC50,Relative MFI
B1,1 ratio,1 ratio
B2,1.4 ratio,0.79 ratio
B3,1.7 ratio,0.51 ratio
B4,1.5 ratio,0.81 ratio
B5,0.3 ratio,0.31 ratio
